The values that follow are results of earlier work, collected in publication PMC11853434.

One may read the Kd as the free concentration of one partner at which half of the binding sites on the other are occupied at equilibrium, for simple one-to-one binding.

Series [1] has as its target SARS-CoV-2 spike RBD RBD (Severe acute respiratory syndrome coronavirus 2) (UniProt P0DTC2).
The target is the same in series [2]. This is another data set of the same source.

Read-outs that look alike come from different tables or passages of the source.

For the substance casirivimab, in series [1], the Kd was 3.37 nM.

As to imdevimab, in series [2], the Kd was 45.2 nM.
